Results taken from paper PMC10185811 (2023).
Values belong to the binder of their own block, whether it stands above or below them.

Key:
His6-RPN1 WT [1] = target: T1, His6-RPN1 WT (human, UniProt Q13200 1-908); assay: BLI
His6-RPN1 WT [2] = target: T1, His6-RPN1 WT; assay: BLI; in presence of GST; unit inferred, M assumed
His6-RPN1 WT [3] = target: T1, His6-RPN1 WT; assay: BLI; NUB1L pre-bound to GST-FAT10; unit inferred, M assumed

T1 sequence (Q13200 whole entry): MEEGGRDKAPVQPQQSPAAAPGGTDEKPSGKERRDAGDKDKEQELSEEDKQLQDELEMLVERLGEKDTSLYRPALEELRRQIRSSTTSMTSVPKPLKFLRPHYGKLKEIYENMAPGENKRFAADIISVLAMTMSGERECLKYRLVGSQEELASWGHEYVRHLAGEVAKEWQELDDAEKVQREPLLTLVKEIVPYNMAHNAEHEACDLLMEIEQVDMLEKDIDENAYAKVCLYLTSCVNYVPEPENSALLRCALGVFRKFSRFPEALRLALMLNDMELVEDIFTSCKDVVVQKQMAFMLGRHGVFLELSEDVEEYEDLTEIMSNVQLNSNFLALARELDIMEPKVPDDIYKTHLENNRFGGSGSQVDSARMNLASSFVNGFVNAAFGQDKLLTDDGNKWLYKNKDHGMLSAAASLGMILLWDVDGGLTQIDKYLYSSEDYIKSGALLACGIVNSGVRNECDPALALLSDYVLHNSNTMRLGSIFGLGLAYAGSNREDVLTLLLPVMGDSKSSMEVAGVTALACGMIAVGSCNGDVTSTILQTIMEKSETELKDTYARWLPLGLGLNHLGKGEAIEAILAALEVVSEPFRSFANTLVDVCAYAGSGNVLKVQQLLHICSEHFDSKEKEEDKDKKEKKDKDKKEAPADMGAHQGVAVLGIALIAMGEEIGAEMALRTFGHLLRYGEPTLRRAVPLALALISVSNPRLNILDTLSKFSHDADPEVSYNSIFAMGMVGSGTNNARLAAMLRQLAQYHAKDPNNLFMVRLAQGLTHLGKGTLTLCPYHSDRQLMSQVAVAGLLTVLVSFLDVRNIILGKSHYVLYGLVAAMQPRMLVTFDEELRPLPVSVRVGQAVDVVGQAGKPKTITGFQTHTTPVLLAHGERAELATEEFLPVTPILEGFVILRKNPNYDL

Kd (His6-RPN1 WT [1]): 1.71 µM
Kd (His6-RPN1 WT [2]): 1.56 µM
B1: NUB1L (NEDD8 ultimate buster 1 long), tagless (natural protein)
chain: MAQKKYLQAKLTQFLREDRIQLWKPPYTDENKKVGLALKDLAKQYSDRLECCENEVEKVIEEIRCKAIERGTGNDNYRTTGIATIEVFLPPRLKKDRKNLLETRLHITGRELRSKIAETFGLQENYIKIVINKKQLQLGKTLEEQGVAHNVKAMVLELKQSEEDARKNFQLEEEEQNEAKLKEKQIQRTKRGLEILAKRAAETVVDPEMTPYLDIANQTGRSIRIPPSERKALMLAMGYHEKGRAFLKRKEYGIALPCLLDADKYFCECCRELLDTVDNYAVLQLDIVWCYFRLEQLECLDDAEKKLNLAQKCFKNCYGENHQRLVHIKGNCGKEKVLFLRLYLLQGIRNYHSGNDVEAYEYLNKARQLFKELYIDPSKVDNLLQLGFTAQEARLGLRACDGNVDHAATHITNRREELAQIRKEEKEKKRRRLENIRFLKGMGYSTHAAQQVLHAASGNLDEALKILLSNPQMWWLNDSNPETDNRQESPSQENIDRLVYMGFDALVAEAALRVFRGNVQLAAQTLAHNGGSLPPELPLSPEDSLSPPATSPSDSAGTSSASTDEDMETEAVNEILEDIPEHEEDYLDSTLEDEEIIIAEYLSYVENRKSATKKN

Kd (His6-RPN1 WT [1]): 4040 µM
B2: GST-FAT10 (natural protein)
chain: MAPNASCLCVHVRSEEWDLMTFDANPYDSVKKIKEHVRSKTKVPVQDQVLLLGSKILKPRRSLSSYGIDKEKTIHLTLKVVKPSDEELPLFLVESGDEAKRHLLQVRRSSSVAQVKAMIETKTGIIPETQIVTCNGKRLEDGKMMADYGIRKGNLLFLACYCIGG

Kd (His6-RPN1 WT [3]): 0.432 µM
B3: NUB1L-bound GST-FAT10 (NUB1L co-incubated with GST-FAT10) (complex)
chain 1: B1 chain
chain 2: B2 chain
